{"source": "the nanobody polyreactivity screen of Harvey et al. (2022)", "data": [{"assay": "yeast display, Sf9 membrane polyspecificity reagent, FACS + sequencing; frameworks hold sequencing errors", "how_it_was_run": "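Sorting gates, low and high (top ~1%), were placed on anti-HA fluorescence to track expression and on streptavidin fluorescence to track reagent binding. A clone's polyreactivity label is taken from the gate it came out of. The reagent was 10% biotinylated, detergent-solubilized Sf9 membrane, applied for 1 hour at 4 °C to galactose-induced yeast display cells.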", "values": [{"sequence": "QVQLVESGGGLVQAGGSLRLSCAASGIIFVKYTMGWYRQAPGKERELVAAITRGGSTYYADSVKGRFTISRDNAKNTVYLQMNSLKPEDTAVYYCAAAWYQYFVPGYRGYTYYYWGQGTQVTVSS", "polyreactivity (PSR sort gate)": "high polyreactivity"}, {"sequence": "QVQLVESGGGLVQAGGSLRLSCAASGNIFHFYAIARYRQAPRKERELVATISWRGDGTYYADSVKGRFTISRDKAKNTVYFQLISLKPEETAVDYCAARGVWPEYDYWGQGTQVTVSS", "polyreactivity (PSR sort gate)": "low polyreactivity"}, {"sequence": "QVQLVESGGGLVQAGGSLRLSCAASGSIFIANAMGWYRQAPGKERELVATISWSGGRTYYADSVKGRFTISRDNAKNTVYLQMNSLKPEDTAVYYCAAVYGAYDSGYKYNYWGQGTQVTVSS", "polyreactivity (PSR sort gate)": "high polyreactivity"}, {"sequence": "QVHLVESGGGLVQAGGSLRLSCAASGSTIVDYHMAWYRQAPGKERELVASISSSGGSTYYADSVKGRFTISRDNAKNTVYLQMNSLKPEDTAVYYCAADTWGFWYWGPLFSKYGYWGQGTQVTVSS", "polyreactivity (PSR sort gate)": "low polyreactivity"}, {"sequence": "QVQLVESGGGLVQAGGSLRLSCAASGNIFYRYAMGWYRQAPGKERELVAAISGNSGNTYYADSVKGRFTISRDIAKNTVYLQMNSLKPEDTAVYYCAAERRAFGHYSWGQGTQVTVSS", "polyreactivity (PSR sort gate)": "high polyreactivity"}, {"sequence": "QVQLVESGGGLVQAGGSLRLSCAASGSIFSQYAMGWYRQAPGKERELVAAIRTGGRTHYADSVKGRFTISRDNAKKTVYLQMNSLKPEDTAVYYCAAQARYYWGTTYEYWGQGTQVTVSS", "polyreactivity (PSR sort gate)": "high polyreactivity"}, {"sequence": "QVQLVESGGGLVQAGGSLRLSCAASGRTFQRYALGWYRQAPGKERELVAAITSRGGSTYYADSVKGRFTISRDNAKNTDYLQMNSLIPEETAVYYCSARSRRTHSEPQSEMDYWGQGTQVTVSS", "polyreactivity (PSR sort gate)": "high polyreactivity"}, {"sequence": "QVQLVDSGGGLVQAGGSLRLSCAASGSIFTYNGKVWYRQAPGKEREFVAAITWTGGSTYADSVKGRFTISSDNSNNTVYLQMNSLKREDTAVYYCAAVRRISWYTPVNTRRYYYWGQGTQVTVSS", "polyreactivity (PSR sort gate)": "high polyreactivity"}, {"sequence": "QVQLVESGGGLVQAGGSLRLSCAASGSIFPTYALGWYRQAPGKERELVAAISSIVGGTYYADSVKGRFTISRDNAKNTVYLQMNSLKPEDTAVYYCNKTKFQGYDYWGQGTQVTVSS", "polyreactivity (PSR sort gate)": "low polyreactivity"}, {"sequence": "QVQLVESGGGLVQVGGSLRLSCAASGFIFTHYAMGWYRQAPGKERELVAAISVDGGDTYYADSVKGRFTISRDNAKNTVYLQMNSLKPEDTAVYYYWGQGTQVTVSS", "polyreactivity (PSR sort gate)": "low polyreactivity"}, {"sequence": "KVQLVESGGGLVQAGGSLRLSCPASGSIFTSYAMGWYRQAPGKERELVAAISSGGSTNYADSVKGRFTISRDNAKNTVYLQMNSLKPEDTAVYYCAKGSRKSGYKYYHGRVWFGYWGQGTQVTVSS", "polyreactivity (PSR sort gate)": "high polyreactivity"}, {"sequence": "QVQIVESGGGLVQAGGSLRLSSAAYGSTFAIYTMGWSRQAPGKERELVATISYSGGGTYYADSVKGRFTISRDNAKNTVYLQMNSLKPEDTAVYYCAAGRRTYYGTYYYWGQGTQVNVSS", "polyreactivity (PSR sort gate)": "high polyreactivity"}, {"sequence": "QVQLVESGGGLVQAGGSLRLSCAASGSILSYYVMGWYRQAPGKERELVAAITSDGSTNYADSVKGRFTISRDNAKNTVYLQMNSQKPEDTAVYYCAAVIAWYYGVQDVYYLGLYDYWGQGTQVTVSS", "polyreactivity (PSR sort gate)": "low polyreactivity"}, {"sequence": "QVQLVESGGGLVQAGGSLRLSCAASGSTFGFYAMGGYRQAPGKERELVAAITSGDITYADSVKGRFTISRDNAKNTVYLQMNSLKPEDTAVYYCATTSYGYWFGYIPEVDYWGQGTQVSVSS", "polyreactivity (PSR sort gate)": "low polyreactivity"}, {"sequence": "QVQLVESGGGLVQAGGSLRLICAASGRIFWSNTMGWYRQAPGKERELVAAISGRGGSTYYADSVKGRFTISRDNAKNTVYLQMNSLKPEDTAVYYCAAKPTRSRKIYEYWGQGTQVTVSS", "polyreactivity (PSR sort gate)": "low polyreactivity"}, {"sequence": "QVQLVESGGGLVQAGGSLRLSCAASGRTFWYNALGWYRQAPGKERELVAAISWSGGTTYYADSVKGRFTISRDNAKNTVYLQMNSLKPEDTAVYYCNAKYRGLAKYDYWGQGTQVTVSS", "polyreactivity (PSR sort gate)": "high polyreactivity"}, {"sequence": "QVQLVESGGGLVQAGGSVRLSCAASGSTSAYAMGWYRQAPGKEREFVAAIRFSAGSTYYADSVKGRFTISRDNAKNTVYLQMNSLKPEDTAVYYCAASYSVIFGYFPDYYWVVEYDYWGQGTQVTVSS", "polyreactivity (PSR sort gate)": "high polyreactivity"}, {"sequence": "QVQLVESGVGLVQAGGSLRLSCAASGLTFATNAMGWYRQAPGKERELVAAITGSGGSTNYADSVKGRFTISRDNAKNTVYLQMNSLKPEDTAVYYCAADLLWEPSRGYRGDYWGQGTQVTVSS", "polyreactivity (PSR sort gate)": "low polyreactivity"}, {"sequence": "QVQLVESGGGLVQAGGSLRLSCAASGFTFRYNAMGWYRQAPGKERELVAAITWRGGRTYYADSVKGRFTISRDNAKNTVYLQMNSLKPEDTAVYYCAVYRTSTRYVVDSDYWGQGTQVTVSS", "polyreactivity (PSR sort gate)": "low polyreactivity"}, {"sequence": "QVQLVESGGGLVQAGGSLRLSCAASGFTFTGNAMGWYRQAPGKERELVAAITSGGRTYYADSVKGRFTISRDNAKNTVYLQMNSLIPEDTAVYYCNTAGLKRYVTFYYWGQGTQVTVSS", "polyreactivity (PSR sort gate)": "high polyreactivity"}, {"sequence": "QVQLVESAGGLVQAGGILRLSCAASGRTFEGNPMGWYRQAPGKERELVAAITSGGRTNYADSVKGRLTISRDNAKNTVYLQMNSLKPEDTAVYYCAATSTYRSYREYDYWGQGTQVTVSS", "polyreactivity (PSR sort gate)": "low polyreactivity"}, {"sequence": "QVHLVESGGGLVQAGGSLRLSCAASGRTFSAYAMGWYRQAPGKEREDVAAISRSGGSTYYADSVKGRFPISRDNAKNTVYLQMNILTPEDTAVSDCAVRWPSARIPVKLEDWGQGTQVTVSS", "polyreactivity (PSR sort gate)": "high polyreactivity"}, {"sequence": "QVQLVESGGGLVQAGGSLRLSCAASGSIFSSNAMGWYIQAPGKERELVAAITYSGGSTYYADSVKGRFTISRDNAKNTVYLQMNSLKPEDTAVYYCAADNGNWYDGYSYDYWGQGTQVTVSS", "polyreactivity (PSR sort gate)": "low polyreactivity"}, {"sequence": "QVQLVESGGGLVQAGGSLRLSCAASGRIFGVNAMGWYRQAPGKERELVAAISSGDSTYYADSVKGRFTISRDNAKNTVYLQMTCLKPEDTAVYYCAADVLGTTTTVGGFNYWGQGTQVTVSS", "polyreactivity (PSR sort gate)": "low polyreactivity"}, {"sequence": "QVQLVESGGGLVQAGGSLRLSCAASGFTFDYNAMGWYRQAPGKERELVAVISSSGSRTYYADSVKGRFTISRDIAKITVYLQINSLNPEDTAVYYCAAARIGTRDYWGQGTQVSVSS", "polyreactivity (PSR sort gate)": "high polyreactivity"}, {"sequence": "QVQLVESGGGLVQAGGSLRLICAASGRIFITNTMGWYRQAPGKETELVAAISRTGGSTYYADSVKGRFTISRDNAKNTVYLQMNSLKPEDTAVYFCNAVVRGYAQGAGFDYWGQGTQVTVSS", "polyreactivity (PSR sort gate)": "high polyreactivity"}, {"sequence": "QVQLVESGGGLVQAGRSLRLSCAASGSIFGWNAMGWYRQAPGKERELVAAINGGDRTNYADSVKGRFTISRDNAKNTVYLQMNSLNTEDTAVYYCGKDFYPTRPGWGGGEYNYWGQGTQVTVSS", "polyreactivity (PSR sort gate)": "low polyreactivity"}, {"sequence": "QVQLVESGGGLVQAGGSLRLSCAASGSIFTYNAMGWYRQAPGKERELVAVISWSGGSTYYADSVKGRFTISRDNAKNTVYLQMNSLKPEDTAVYYCNAYYYRPYGNKYGYWGQGTQVTVSS", "polyreactivity (PSR sort gate)": "high polyreactivity"}, {"sequence": "QVQLVESGGGIVQAGGSLRLSCAASGSTYNLNALGWSRQAPGKERELVAAIDSGGRTNYADSVKGRFTISRDNAKNTVYVQMNSLKPEDTAVYYCAADVYAYPGSWYDYWGQGTQVTVSS", "polyreactivity (PSR sort gate)": "low polyreactivity"}, {"sequence": "QVQLVESGGGLVQAGGSLRLSCAASGYTFSFYAMGWYIQAPGKERELVATISWRGGSTYYADSVKGRFTISRDNAKNTVYLQMNSLKPEDTAVYYCNIVDKTGSKMDYWGQGTQVTVSS", "polyreactivity (PSR sort gate)": "high polyreactivity"}, {"sequence": "QVQLVESGGGLVQAGGSLRLSCAASGSTFRRYVMGGYREAAGKERELVAAISGSSGSTYYADSVKGRFTISRDNAKNTVYLQMNSLKPEDTAVYYCAAVRATQGYRYGYWGQGTQVTVSS", "polyreactivity (PSR sort gate)": "high polyreactivity"}]}]}
